Data: PMC7921601

How the values were obtained:
[1] = target: AF647-CLIC1C24 (CLIC1 W23F, C59A, C89A, C178A, C191A, C223A, labelled with Alexa Fluor 647 at C24) (UniProt O00299); experiment: two-colour single-molecule TIRF colocalisation with photobleaching step analysis; AF647-CLIC1C24 (1 μM) with AF488-αBcC176 (2 μM) at 37 °C in 50 mM phosphate buffer pH 7.4; early timepoints (0.25-0.5 h); diluted 1:1000, CLIC1 held by an anti-6X His-tag antibody; details: scale: αBc subunits per CLIC1 subunit
[2] = target: AF647-CLIC1C24 (CLIC1 W23F, C59A, C89A, C178A, C191A, C223A, labelled with Alexa Fluor 647 at C24) (UniProt O00299); experiment: two-colour single-molecule TIRF colocalisation with photobleaching step analysis; AF647-CLIC1C24 (1 μM) with AF488-αBcC176 (2 μM) at 37 °C in 50 mM phosphate buffer pH 7.4; later timepoints (1-10 h); diluted 1:1000, CLIC1 held by an anti-6X His-tag antibody; with or without cross-linking before dilution
[3] = target: AF488-αBc_(C176) (human alphaB-crystallin with an additional C-terminal cysteine, labelled with Alexa Fluor 488) (human); experiment: single-molecule TIRF with photobleaching step analysis; αBcC176 in the absence of CLIC1C24, with or without cross-linking, diluted for TIRF microscopy; size of the oligomers
[4] = target: AF555-CLIC1C24 (CLIC1 W23F, C59A, C89A, C178A, C191A, C223A, labelled with Alexa Fluor 555 at C24) (UniProt O00299); experiment: FRET or BRET; single-molecule FRET by TIRF microscopy; AF555-CLIC1C24 (1 μM) with AF647-αBcC176 (2 μM) for 20 h at 37 °C in 50 mM phosphate buffer pH 7.4, diluted 1:1000, CLIC1 held on the coverslip by an anti-6X His-tag antibody; imaged at about 20 °C

| Substance | stoichiometry N [1] | percent of CLIC1C24 colocalized with αBcC176 (maximum, after 4 h) [2] | stoichiometry N [3] | FRET efficiency (E) [4] |
| --- | --- | --- | --- | --- |
| AF488-αBc_(C176) (human alphaB-crystallin with an additional C-terminal cysteine, labelled with Alexa Fluor 488) (natural protein) | 1 | 50% | < 10 subunits | – |
| AF647-αBc_(C176) (human alphaB-crystallin with an additional C-terminal cysteine, labelled with Alexa Fluor 647) (natural protein) | – | – | – | 0.8 to 1 |
